Data published in patent publication US7517959B2, “SOCS3 proteins” (Walter and Eliza Hall Institute of Medical Research, priority 2005, dated 2009).
“Also recorded” adds a separate entry of the source.

B1: SOCS3(22-185): Mouse SOCS3 residues 22-185 with KIR and extended SH2 domain, lacking the C-terminal SOCS box (protein)
chain: LKTFSSKSEYQLVVNAVRKLQESGFYWSAVTGGEANLLLSAEPAGTFLIRDSSDQRHFFTLSVKTQSGTKNLRIQCEGGSFSLQSDPRSTQPVPRFDCVLKLVHHYMPPPGTPSFSLPPTEPSSEVPEQPPAQALPGSTPKRAYYIYSGGEKIPLVLSRPLSSN
B2: SOCS3(22-225): Mouse SOCS3 residues 22-225 containing KIR, extended SH2 domain and SOCS box (protein)
chain: LKTFSSKSEYQLVVNAVRKLQESGFYWSAVTGGEANLLLSAEPAGTFLIRDSSDQRHFFTLSVKTQSGTKNLRIQCEGGSFSLQSDPRSTQPVPRFDCVLKLVHHYMPPPGTPSFSLPPTEPSSEVPEQPPAQALPGSTPKRAYYIYSGGEKIPLVLSRPLSSNVATLQHLCRKTVNGHLDSYEKVTQLPGPIREFLDQYDAPL
B3: SOCS3(22-185)(Δ129-163): 22-185 construct with Pro129-Arg163 replaced by an eight residue (Gly-Ser)x4 linker; SEQ ID NO:3 (protein, listed as Mus musculus)
chain: LKTFSSKSEYQLVVNAVRKLQESGFYWSAVTGGEANLLLSAEPAGTFLIRDSSDQRHFFTLSVKTQSGTKNLRIQCEGGSFSLQSDPRSTQPVPRFDCVLKLVHHYMGSGSGSGSAYYIYSGGEKIPLVLSRPLSSN
B4: ΔPEST SOCS3: Full-length SOCS3 lacking the PEST sequence (Δ129-163), Flag-tagged (protein)
chain: B3 chain

Tests used:
SOCS3 = SOCS3 (Mus musculus, UniProt O35718); details: result in words; cited from earlier work
[1] = Description: (§1) Pelleted bacterial cells were resuspended in PBS and then lysed by homogenisation. The lysate was centrifuged at 20,000 g and the pelleted inclusion bodies solubilised using 6M GdnHCl. The protein was then purified using Ni-NTA resin (Qiagen) by binding at pH 8.0, washing at pH 6.3 and eluting at pH 4.5, all in 6M GdnHCl. The eluted protein was diluted to 0.1 mg/mL and a final GdnHCl concentration of 4 M and then refolded by extensive dialysis against 25 mM sodium phosphate, 50 mM sodium chloride, 5 mM 2-mercaptoethanol at pH 6.7.
All constructs contained the SH2 domain, as defined by sequence homology (Okazaki et al., 2002), but included differing lengths of sequence outside this region.
The six mutants (A50D, G53R, L58E, A62E, A65E, G99D) were all cloned and expressed in E. coli as part of a 22-185 construct.

293T cells = test: Pulse chase half-life experiments in 293T cells; format: cell-based; details: for effect of proteasome inhibitor MG132 on half-life: 10 μM MG-132, over eight hours; for labelled protein remaining: after 8 hr; for intracellular stability / turnover: pulse chase, result in words
Source text: FIG. 9. Removing the PEST motif improves the intracellular half-life of SOCS3 and affects its degradation mechanism. • (A) Duplicate pulse chase experiments in 293T cells performed after transfection of (upper panel) wild-type (1-225) or ΔPEST (Δ129-163) SOCS3 DNA and (lower panel) ΔNC-SOCS3 (22-185) or ΔNC-Δ129-163 (22-185 ΔPEST) SOCS3 DNA. The amount of labelled protein remaining is shown as a perceintage of initial levels and plotted as a semi-log graph. […] Duplicate experiments are shown in each panel • (B) Removing the PEST motif alters the intracellular degradation pathway of SOCS3. Pulse chase experiments were performed on 293T cells transfected with wild-type SOCS3 (black) or ΔPEST SOCS3 (grey) and incubated in the presence (hashed bars) and absence (solid bars) of MG-132, a proteasome inhibitor. Experiments were performed in duplicate according to the protocol in (A) but with the addition of 10 μM MG-132 and the protein levels monitored over eight hours.
293T cells (5×10^5 cells/well) were transfected with 1.5 μg of the appropriate SOCS3 expression construct as described above. 48 h after transfection cells were washed twice in PBS and incubated for 1 h in Met/Cys-free DME (Gibco-BRL). Cells were then incubated for 30 min in DME containing 0.15 mCi/ml [^35S]Met/Cys (Perkin-Elmer) followed by DME+10% Foetal calf serum (Sigma)+2 mM Cys+2 mM Met for various times, upon which cells were lysed in KALB lysis buffer (1 mM EDTA, 150 mM NaCl, 50 mM Tris-Cl, 1% Triton X-100, pH 7.5) and the amount of [^35S]-labelled SOCS3 was determined by immunoprecipitation using anti-Flag tag M2 beads (Sigma). Detection and quantification was carried out using a FujiFilm FLA-3000 phosphoimager and associated software.
Intracellular levels of SOCS3 are strongly regulated by proteolysis. Two regions of the protein have been implicated previously in regulating proteolysis, Lys6 in the N-terminal domain and the C-terminal SOCS box (Chen et al., 2002; Kamura et al., 1998; Sasaki et al., 2003). As PEST motifs are known to be signals for protein degradation in vivo (Rogers et al., 1986), we measured the half-life of SOCS3 proteins that lacked the PEST motif, as well as constructs lacking the SOCS box and the N-terminal region. […] As the SOCS box and the N-terminal domains also affect SOCS3 turnover we further examined the effect of deleting these regions. The decrease in SOCS3 degradation upon removing the PEST motif from either the full-length protein (upper panel) or from SOCS322-185 (which lacks both the N-terminal domain and SOCS box, lower panel) was significant.
As PEST motifs have been associated with proteasome-mediated degradation, we investigated whether proteasome inhibitors would have an effect on the half-life of SOCS3 in 293T cells. […] After 8 hr in the presence of MG132 approximately 65% of ΔPEST SOCS3 remained, compared with ca. 45% in its absence. […] Thus it appears that, in 293T cells, the proteasomal pathway is an important route for ΔPEST SOCS3 degradation but that wild-type SOCS3, which contains the PEST motif, is efficiently degraded via another mechanism.

[2] = depending on the cell type; cited from earlier work
[3] = molecular target: tyrosine phosphorylated peptide from gp130 (Mus musculus, UniProt Q00560, Q756E); test: Binding studies and isothermal titration calorimetry (ITC) with gp130 peptide; details: for ΔH: FIG. 4 titration, fit to single site binding isotherm
Description: as §1

[4] = system: LIF-induced Stat3 activity; test: Stat3-responsive luciferase assay in 293T cells; format: cell-based; details: 100 or 300 ng cDNA, 10 ng/ml LIF overnight
Source text: FIG. 8. […] Backbone amide chemical shift differences between residues in wild-type SOCS3 and ΔPEST SOCS3, which has residues 129-163 replaced by […] (SEQ ID NO:10), are plotted against residue number; amide proton and nitrogen chemical shift differences were averaged according to Δδav, a weighted average of the ^15N and ^1HN chemical shifts as follows: Δδav={0.5[Δδ(^1HN)^2+(0.2Δδ(15N))^2]}^1/2 (Pellecchia et al., 1999). The position of the PEST sequence is marked by a double asterisk. • (B) SOCS3 PEST deletion mutants are able to inhibit STAT activation. 293T cells were transiently transfected with 100 or 300 ng cDNA expressing various Flag-tagged SOCS-3 proteins in the presence of the Stat3-responsive reporter gene. […] Upper panel: Luciferase activity from triplicate samples was determined and normalized against Renilla luciferase activity. Lower panel: Lysates were analysed by Western blot with anti-Flag antibody. […]
Firefly and Renilla luciferase activities were quantified using substrate reagents from the Luciferase Assay Dual-Reporter kit (Promega, Madison Wis.) and an automated LUMIstar Galaxy plate reader (BMG Technologies, Offenburg, Germany). SOCS3 protein expression was analysed by Western blot with polyclonal rat anti-Flag antibody (Drs. D. Huang & L. O'Reilly, The Walter and Eliza Hall Institute of Medical Research, Melbourne, Australia) as described (Nicholson et al., 1999). […]

SOCS3, sequence (O35718 whole entry): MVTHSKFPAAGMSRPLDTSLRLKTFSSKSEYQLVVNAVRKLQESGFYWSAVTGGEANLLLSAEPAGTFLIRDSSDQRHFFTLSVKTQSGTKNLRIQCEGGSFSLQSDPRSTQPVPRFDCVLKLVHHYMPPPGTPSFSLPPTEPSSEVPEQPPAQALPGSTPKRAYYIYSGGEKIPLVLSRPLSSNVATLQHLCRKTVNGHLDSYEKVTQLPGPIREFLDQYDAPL

| ΔH [3] [kcal/mol] | Molecule | solubility (in words) [1] | effect of proteasome inhibitor MG132 on half-life (293T cells) | intracellular stability / turnover (293T cells) | other results |
| --- | --- | --- | --- | --- | --- |
| – | STASTVEpYSTVVHSG [phosphotyrosine peptide from gp130] | – | – | – | binding to mouse SOCS3 (SOCS3): bind with high affinity |
| – | wild-type SOCS3: Wild-type (1-225) murine SOCS3, Flag-tagged in the cell assays; SEQ ID NO:1 | too low for structure determination | did not affect the half-life; also recorded: no effect on the half-life | – | labelled protein remaining (293T cells; MG132 state not specified (no effect on wild-type)): 25%; half-life [2]: under 5 minutes to over 8 hours |
| -6.2 | B1 | highest solubility | – | – | soluble to [1]: ≈ 0.5 mM |
| – | B2 | too poorly soluble | – | – | solubility in NaCl/Pi [1]: < 1000 µg/mL |
| -6.4 | B3 | – | – | improved its in vivo stability | binding to the gp130 peptide ([3]; result in words): binds to the gp130 peptide |
| – | B4 | – | dramatically increased the half-life; also recorded: significantly increased the half-life | improved its in vivo stability | ability to inhibit LIF-induced Stat3 activity [4]: did not alter the ability of SOCS3 to inhibit LIF-induced Stat3 activity; labelled protein remaining (293T cells; in the absence of MG132): ca. 45%; labelled protein remaining (293T cells; in the presence of MG132 (10 μM)): approximately 65% |
